Assay [1] addresses LeuT-AA, dimer interface mutant of LeuT (F488A and Y489A), C-terminally GFP-tagged.
Assay [2] deals with TrkA^ECD+TM, truncation mutant of TrkA containing the extracellular and transmembrane domains, C-terminally GFP-tagged.
The target is the same in assay [3]. The source holds these as a separate data set.
Assay [4] concerns the target sugar transporter SemiSWEET, C-terminally GFP-tagged.
For assay [5], the target named is TrkA^TM, truncation mutant of TrkA containing only the transmembrane domain, C-terminally GFP-tagged.
The target in assay [6] is T1, potassium ion channel KcsA, C-terminally GFP-tagged, P0A334.
T1 chain: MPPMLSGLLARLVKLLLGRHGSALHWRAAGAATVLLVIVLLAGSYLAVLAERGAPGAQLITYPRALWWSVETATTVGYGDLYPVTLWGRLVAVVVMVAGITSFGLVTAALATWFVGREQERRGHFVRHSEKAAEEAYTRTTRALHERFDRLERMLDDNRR
The following applies: remark: other sources report otherwise.

By stoichiometry N is commonly meant the number of molecules, sites or subunits per partner or assembly.

On to “LeuT-AA, dimer interface mutant of LeuT (F488A and Y489A), C-terminally GFP-tagged (natural protein)”, for which, in assay [1], the percent dimer was 36% and the percent monomer came to 53%.

In the case of “TrkA^ECD+TM, truncation mutant of TrkA containing the extracellular and transmembrane domains, C-terminally GFP-tagged (domain or fragment)”, in assay [2], the percent dimer (no NGF) worked out at 40%, the percent higher-order oligomers (no NGF) turned out to be 5% and the percent monomer (no NGF) was 55%. In assay [3], the percent dimer (NGF-treated, fraction 1) came out at 47%; the percent higher-order oligomers (NGF-treated, fraction 1) was determined as 30%; the percent monomer (NGF-treated, fraction 1) amounted to 22%.

In turn, “sugar transporter SemiSWEET, C-terminally GFP-tagged (natural protein)” displayed a stoichiometry N in assay [4] of 2.

In assay [5], “TrkA^TM, truncation mutant of TrkA containing only the transmembrane domain, C-terminally GFP-tagged (domain or fragment)” came in with a percent dimer (no NGF) of 35%, a percent higher-order oligomers (no NGF) of 2% and a percent monomer (no NGF) of 60%.

B1: potassium ion channel KcsA, C-terminally GFP-tagged, P0A334 1-160 (natural protein)
chain: T1 chain
As to B1, the stoichiometry N in assay [6] turned out to be 4.

These data come from paper PMC10981947.
